According to ChEMBL document CHEMBL1157347, “Chemoenzymatic syntheses of prenylated aromatic small molecules using Streptomyces prenyltransferases with relaxed substrate specificities” (Bioorg Med Chem, 2008):

Columns and labels:
[1] = tested on: NphB prenyltransferase (Streptomyces sp. CL190); experiment: Ratio of Kcat to Km of Streptomyces sp. CL190 NphB prenyltransferase assessed as formation of 4-(3,7-dimethylocta-2,6-dienyl)naphthalene-1,6-diol
[2] = tested on: NphB prenyltransferase (Streptomyces sp. CL190); experiment: Ratio of Kcat to Km of Streptomyces sp. CL190 NphB prenyltransferase assessed as formation of 5-(3,7-dimethylocta-2,6-dienyl)naphthalene-1,6-diol
[3] = tested on: NphB prenyltransferase (Streptomyces sp. CL190); experiment: Ratio of Kcat to Km of Streptomyces sp. CL190 NphB prenyltransferase assessed as formation of 2-(3,7-dimethylocta-2,6-dienyl)naphthalene-1,6-diol
[4] = target: T1, Prenyltransferase homolog (Streptomyces coelicolor A3) (UniProt Q9FBZ2); experiment: Ratio of Kcat to Km of Streptomyces coelicolor A3(2) prenyltransferase assessed as formation of 6-(3,7-Dimethyl-octa-2,6-dienyl)-5,7-dihydroxy-2-(4-hydroxy-phenyl)-chroman-4-one
T1 sequence (whole entry): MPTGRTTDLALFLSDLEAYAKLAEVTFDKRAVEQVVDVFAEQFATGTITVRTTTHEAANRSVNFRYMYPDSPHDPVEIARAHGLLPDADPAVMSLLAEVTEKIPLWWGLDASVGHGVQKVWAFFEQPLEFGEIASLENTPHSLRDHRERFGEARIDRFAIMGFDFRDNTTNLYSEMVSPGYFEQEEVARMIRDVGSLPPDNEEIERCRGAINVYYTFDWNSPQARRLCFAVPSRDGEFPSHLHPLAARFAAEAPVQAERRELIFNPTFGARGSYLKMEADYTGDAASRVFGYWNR

[5] = target: T1, Prenyltransferase homolog (Streptomyces coelicolor A3); experiment: Ratio of Kcat to Km of Streptomyces coelicolor A3(2) prenyltransferase assessed as formation of 7-(3,7-Dimethyl-octa-2,6-dienyloxy)-5-hydroxy-2-(4-hydroxy-phenyl)-chroman-4-one
[6] = target: NphB prenyltransferase (Streptomyces sp. CL190); experiment: Activity for Streptomyces sp. CL190 prenyltransferase NphB assessed as formation of 1-(3,7-dimethylocta-2,6-dienyl)naphthalene-2,7-diol
[7] = substrate: O=C1C[C@@H](c2ccc(O)cc2)Oc2cc(O)cc(O)c21; experiment: Activity for Streptomyces coelicolor A3(2) prenyltransferase assessed as formation of 6-(3,7-Dimethyl-octa-2,6-dienyl)-5,7-dihydroxy-2-(4-hydroxy-phenyl)-chroman-4-one
[8] = target: NphB prenyltransferase (Streptomyces sp. CL190); experiment: Activity for Streptomyces sp. CL190 NphB prenyltransferase assessed as formation of 4-(3,7-dimethylocta-2,6-dienyl)naphthalene-1,6-diol
[9] = target: NphB prenyltransferase (Streptomyces sp. CL190); experiment: Activity for Streptomyces sp. CL190 prenyltransferase NphB assessed as formation of 7-(3,7-dimethylocta-2,6-dienyloxy)-5-hydroxy-3-(4-hydroxyphenyl)-2,3-dihydrochromen-4-one
[10] = target: NphB prenyltransferase (Streptomyces sp. CL190); experiment: Activity for Streptomyces sp. CL190 NphB prenyltransferase assessed as formation of 7-(3,7-dimethylocta-2,6-dienyloxy)-3-(4-hydroxyphenyl)-2,3-dihydrochromen-4-one
[11] = target: NphB prenyltransferase (Streptomyces sp. CL190); experiment: Activity for Streptomyces sp. CL190 NphB prenyltransferase assessed as formation of 5-(4-hydroxystyryl)-2-((E)-3,7-dimethylocta-2,6-dienyl)benzene-1,3-diol
[12] = target: NphB prenyltransferase (Streptomyces sp. CL190); experiment: Activity for Streptomyces sp. CL190 prenyltransferase NphB assessed as formation of 7-(3,7-Dimethyl-octa-2,6-dienyloxy)-5-hydroxy-2-(4-hydroxy-phenyl)-chromen-4-one
[13] = target: NphB prenyltransferase (Streptomyces sp. CL190); experiment: Activity for Streptomyces sp. CL190 prenyltransferase NphB assessed as formation of 5-(3,7-dimethylocta-2,6-dienyl)naphthalene-1,6-diol
[14] = target: NphB prenyltransferase (Streptomyces sp. CL190); experiment: Activity for Streptomyces sp. CL190 NphB prenyltransferase assessed as formation of 2-(3,7-dimethylocta-2,6-dienyl)-5-pentylbenzene-1,3-diol
[15] = target: NphB prenyltransferase (Streptomyces sp. CL190); experiment: Activity for Streptomyces sp. CL190 prenyltransferase NphB assessed as formation of 6-(3,7-Dimethyl-octa-2,6-dienyl)-5,7-dihydroxy-2-(4-hydroxy-phenyl)-chromen-4-one
[16] = substrate: O=C1C[C@@H](c2ccc(O)cc2)Oc2cc(O)cc(O)c21; experiment: Activity for Streptomyces coelicolor A3(2) prenyltransferase assessed as formation of 7-(3,7-Dimethyl-octa-2,6-dienyloxy)-5-hydroxy-2-(4-hydroxy-phenyl)-chroman-4-one
[17] = target: NphB prenyltransferase (Streptomyces sp. CL190); experiment: Activity for Streptomyces sp. CL190 prenyltransferase NphB assessed as formation of 2-(3,7-dimethylocta-2,6-dienyl)naphthalene-1,6-diol
[18] = target: NphB prenyltransferase (Streptomyces sp. CL190); experiment: Activity for Streptomyces sp. CL190 NphB prenyltransferase assessed as formation of 4-(3,7-dimethylocta-2,6-dienyl)-5-pentylbenzene-1,3-diol

## Oc1ccc2c(O)cccc2c1
[1]
  Ratio: 0.3
[2]
  Ratio: 7.7
[3]
  Ratio: 2.2

## O=C1C[C@@H](c2ccc(O)cc2)Oc2cc(O)cc(O)c21
[4]
  Ratio: 0.31
[5]
  Ratio: 1.4

B1: Prenyltransferase homolog (Streptomyces coelicolor A3), Q9FBZ2 (protein)
chain: MPTGRTTDLALFLSDLEAYAKLAEVTFDKRAVEQVVDVFAEQFATGTITVRTTTHEAANRSVNFRYMYPDSPHDPVEIARAHGLLPDADPAVMSLLAEVTEKIPLWWGLDASVGHGVQKVWAFFEQPLEFGEIASLENTPHSLRDHRERFGEARIDRFAIMGFDFRDNTTNLYSEMVSPGYFEQEEVARMIRDVGSLPPDNEEIERCRGAINVYYTFDWNSPQARRLCFAVPSRDGEFPSHLHPLAARFAAEAPVQAERRELIFNPTFGARGSYLKMEADYTGDAASRVFGYWNR
[6]
  Km: 340 µM
  kcat: 0.00047 s⁻¹
[7]
  Km: 2100 µM
[8]
  Km: 1050 µM
  kcat: 0.00032 s⁻¹
[9]
  Km: 330 µM
  kcat: 0.00048 s⁻¹
[10]
  Km: 290 µM
  kcat: 0.00017 s⁻¹
[11]
  Km: 440 µM
  kcat: 5.3e-05 s⁻¹
[12]
  Km: 580 µM
  kcat: 0.00033 s⁻¹
[13]
  Km: 540 µM
  kcat: 0.0042 s⁻¹
[14]
  Km: 520 µM
  kcat: 2.7e-05 s⁻¹
[15]
  Km: 530 µM
  kcat: 0.0006 s⁻¹
[16]
  Km: 1600 µM
[17]
  Km: 510 µM
  kcat: 0.0011 s⁻¹
[18]
  Km: 640 µM
  kcat: 4.3e-05 s⁻¹
